The target in this assay is CH848 10.17DT stabilized SOSIP gp140 Env trimer (HIV-1). As to the kind of experiment: SPR. Background: SPR reads the build-up and loss of mass on a sensor chip optically.

By Kd is commonly meant the equilibrium constant for the complex coming apart. A lower Kd goes with a tighter complex.

B1: DH270 UCA with the improbable G57R mutation (antibody, V domains shown)
VH: not shown
VL: QSALTQPASVSGSPGQSITISCTGTSSDVGSYNLVSWYQQHPGKAPKLMIYEVSKRPSGVSNRFSGSKSGNTASLTISGLQAEDEADYYCCSYAGSSTVIFGGGTKLTVL
In the case of B1, the Kd stood at 132 nM.

B2: DH270 UCA (antibody, format not stated in the text) (antibody, V domains shown)
VH: not shown
VL: QSALTQPASVSGSPGQSITISCTGTSSDVGSYNLVSWYQQHPGKAPKLMIYEVSKRPSGVSNRFSGSKSGNTASLTISGLQAEDEADYYCCSYAGSSTVIFGGGTKLTVL
Consider B2, for which binding was put at a Kd of 558 nM.
